The values below come from publication PMC8038350, “Nordihydroguaiaretic Acid as a Novel Substrate and Inhibitor of Catechol O-Methyltransferase Modulates 4-Hydroxyestradiol-Induced Cyto- and Genotoxicity in MCF-7 Cells” (Molecules, 2021).

One may read the Km as the substrate concentration at which the rate is half of its maximum. As usually defined, the Vmax is the top rate of the reaction or transport when substrate is in excess.

Substrate in the data set: [H][C@@]12CCc3c(ccc(O)c3O)[C@@]1([H])CC[C@]1(C)[C@@H](O)CC[C@@]21[H]
Briefly: enzyme kinetics of O-methylation by recombinant COMT, HPLC-DAD (Km). Type of data set: biochemical, Homo sapiens. Conditions: S-adenosyl-L-methionine (SAM).

B1: catechol O-methyl transferase (COMT) (Homo sapiens) (protein)
chain: MGDTKEQRILNHVLQHAEPGNAQSVLEAIDTYCEQKEWAMNVGDKKGKIVDAVIQEHQPSVLLELGAYCGYSAVRMARLLSPGARLITIEINPDCAAITQRMVDFAGVKDKVTLVVGASQDIIPQLKKKYDVDTLDMVFLDHWKDRYLPDTLLLEECGLLRKGTVLLADNVICPGAPDFLAHVRGSSCFECTHYQSFLEYREVVDGLEKAIYKGPGSEAGP
notes: recombinant human soluble COMT, hexahistidine-tagged
For B1, where the note is “Mg2+”, the Km is recorded as 37.9 µM. Moreover, for the setting “Mg2+ docking only: active site, hydrogen bonds with Glu199 and Asn170”, the Vmax came to 3.26 µmol/min/mg.
